From publication PMC3083827 come the findings set out here.

The data set has as its target T1, Whn (FoxN1) DNA binding domain, WhnDBD (UniProt Q61575 271-367).
T1 sequence: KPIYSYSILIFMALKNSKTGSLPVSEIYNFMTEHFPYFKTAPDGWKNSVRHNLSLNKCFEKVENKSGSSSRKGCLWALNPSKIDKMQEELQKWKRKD
The data set can be described thus: EMSA.

B1: MUT (S1P with core CG to TA) (dsDNA)
DNA 1: CTCCTCCCTGCGCGAAGCGGAAGTGATACGAGGCGTAGCGGAAGTT
DNA 2: AACTTCCGCTACGCCTCGTATCACTTCCGCTTCGCGCAGGGAGGAG
Regarding B1, the binding result was “no binding”.
